Laboratory results: PMC11164701

Target: CpxA^QTY (water-soluble QTY-code variant of the sensor histidine kinase CpxA), his-tagged (E. coli) (UniProt P0AE82)

B1: periplasmic protein CpxP (natural protein)
chain: AEVGSGDNWHPGEELTQRSTQSHMFDGISLTEHQRQQMRDLMQQARHEQPPVNVSELETMHRLVTAENFDENAVRAQAEKMANEQIARQVEMAKVRNQMYRLLTPEQQAVLNEKHQQRMEQLRDVTQWQKSSSLKLLSSSNSRSQ
inhibition of the autokinase activity of CpxA^QTY (1 μM, 1 mM ATP, RT, 2 min, anti-pHis western blot) by different concentrations of CpxP; CpxP excess needed for inhibition by approximately half (fold (CpxP over kinase)): 10
